Measured values published in article PMC10746174.

Biological target: heme
Test: UV-vis spectroscopy, as-purified Soret peak (412 nm)
Settings: 50 µg of purified protein, as-purified (black trace); parent: est. 0.32; read off a plot

For “CcmF:6×His wild type (from UniProt P33927) W229A”, the response was 0.2 Abs.
Substance “CcmF:6×His wild type (from UniProt P33927) Y231A” has a response of 0.18 Abs.
